The results in this text go back to the supplement of paper PMC10567573.

± gives the standard deviation.

The series in a line: protein stability index of a GFP-peptide fusion (GPS, HEK-293T) (PSI 1-6); higher = more stable.
[1] abbreviates: treatment: DMSO, c terminus: a fixed tail appended.
[2] abbreviates: treatment: MLN4924 1 uM, 8 h, c terminus: a fixed tail appended.
Where [3] appears, read: treatment: DMSO, c terminus: native.
Setting [4] is: treatment: MLN4924 1 uM, 8 h, c terminus: native.
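Also: 24-mer peptide tiles fused after GFP, lentivirally expressed, FACS-sorted into six equal bins by GFP/DsRed ratio, decoded by Illumina sequencing, PSI is the read-weighted mean bin number.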

Consider GGIPALVKMLGSPVDSVLFYAITT [CTNNB1], for which the protein stability index was 3.19 ± 0.79 under setting [1] and 3.07 ± 0.99 under setting [2].

On to GGSGGGGGGDEDGSLGSRAEPAPR [SMAD6], for which the protein stability index is, setting by setting: under setting [1], 5.38 ± 0.21; under setting [2], 5.41 ± 0.13.

In the case of GGSGGGSHHHHQSRGACTSHDPQS [KCNA4], the protein stability index runs as follows: under setting [1], 5.08 ± 0.24; under setting [2], 5.12 ± 0.33.

Take GISTGHWSGEVKDKNVQVVELPIV [FUT8]: the protein stability index under setting [1] came to 3.8 ± 0.31 and the protein stability index under setting [2] is 3.9 ± 0.37.

For GKDCFLELAPDFVGDILWEHLEIL [ETS1], the protein stability index runs as follows: under setting [1], 2.42 ± 0.54; under setting [2], 2.05 ± 0.39.

With GKSFCHSTHLTVHRRIHTGEKPYE [ZNF8], the protein stability index runs as follows: under setting [1], 3 ± 0.16; under setting [2], 3.35 ± 0.3.

With GKSFNRHCNLIRHQKIHTVAELV [ZSCAN9], the protein stability index runs as follows: under setting [3], 2.08 ± 0.28; under setting [4], 2.05 ± 0.33.

For GLKADTLKERYQKIGDTKRNTPIE [CSNK1G1], the protein stability index reads like this: under setting [1], 4.36 ± 0.26; under setting [2], 4.53 ± 0.12.

GLLLESLVPFIVNDNITNNFFRFL [DYNC2LI1]: the protein stability index reads like this: under setting [1], 2.9 ± 0.44; under setting [2], 3.17 ± 0.62.

As for GNNLHNASIPEHLAYGSVITVKNL [POMT2], the protein stability index reads like this: under setting [1], 3.05 ± 0.37; under setting [2], 3.02 ± 0.28.

GNQDYKYRVSDVTKAGHSLELIEP [VDR] yielded a protein stability index under setting [1] of 4.24 ± 0.22 and a protein stability index under setting [2] of 4.3 ± 0.26.

Consider GNVKIDSQKLNFREHAKARVDHGA [MAP2], for which the protein stability index by setting is: under setting [1], 4.22 ± 0.14; under setting [2], 4.23 ± 0.52.

In the case of GQSDFRPKNGRHAWIWHDCHRHYH [LOXL2], the protein stability index came out at 2.54 ± 0.29 under setting [1] and 3.03 ± 0.45 under setting [2].

For GQVLHFENVKDVPFGFQTVTSDVN [SERPINB5], the protein stability index was found to be 3.85 ± 0.36 under setting [1] and 3.84 ± 0.42 under setting [2].

For GRKQPGVHEEPVLKKWPKLKSKK [C22orf31], the protein stability index reads like this: under setting [3], 5.16 ± 0.26; under setting [4], 5.08 ± 0.24.

As to GRLLLTLPLLRQTAGKVLAHFYGV [ESRRA], the protein stability index worked out at 2.78 ± 0.54 under setting [1] and 3.05 ± 0.88 under setting [2].

GRPKELQPKKLHLCPLCGKNFSNN [ZNF263]: the protein stability index under setting [1] is 2.88 ± 0.46 and the protein stability index under setting [2] is 3.58 ± 0.52.

In the case of GRTGTLIACYVMKHYRFTHAEIIA [CDC14A], the protein stability index was determined as 2.74 ± 0.89 under setting [1] and 3.11 ± 0.45 under setting [2].

GSGGGYGGGMRVCGFGGGAGSVFG [KRT15]: the protein stability index is 2.18 ± 0.29 under setting [1] and 2.34 ± 0.22 under setting [2].

Turning to GSKCSPEDLATAYNNRGQIKYFRV [TTC32], the protein stability index under setting [1] was 2.16 ± 0.21 and the protein stability index under setting [2] stood at 2.13 ± 0.37.

As to GSKEGNHHSTQPKRNKRNPIFQDS [FAM104B], the protein stability index by setting is: under setting [1], 4.57 ± 0.21; under setting [2], 4.55 ± 0.3.

As for GSMEALNLKQLRKRGSIPTSLTAL [PPFIA4], the protein stability index by setting is: under setting [1], 3.11 ± 0.2; under setting [2], 3.11 ± 0.22.

As for GSSGSYFVKDPQGRIIAVFKPKNE [PI4K2A], the protein stability index was found to be 3.34 ± 0.16 under setting [1] and 3.66 ± 0.12 under setting [2].

For the sequence GTQFTFDQDPSVLYFSIHRYEQGR [HDAC6], the protein stability index reads like this: under setting [1], 2.31 ± 0.51; under setting [2], 2.52 ± 0.34.

In the case of GVTAIIFCVALSDYDLVLAEDEEM [GNAI1], the protein stability index by setting is: under setting [1], 3.86 ± 0.17; under setting [2], 2.75 ± 0.9.

Regarding GVVMKVRIPTCHDKPGTTQIVQLT [DENND6A], the protein stability index stood at 2.02 ± 0.19 under setting [1] and 2.15 ± 0.4 under setting [2].

On to GWILIDRCGKHFGTILNYLRDGAV [KCTD10], for which the protein stability index is, setting by setting: under setting [1], 3.08 ± 0.41; under setting [2], 2.38 ± 0.52.

For the sequence GYQRKCYFISTVKRSWTSAQNACS [CD69], the protein stability index was 2.46 ± 0.66 under setting [1] and 1.85 ± 0.59 under setting [2].

As to HAFQKELTCVICLNYLVDPVTICC [TRIM43], the protein stability index runs as follows: under setting [1], 3.04 ± 0.33; under setting [2], 2.95 ± 0.4.

As to HCKEKRKTSLLDQLTNTSGTVIGV [NETO1], the protein stability index runs as follows: under setting [1], 3.37 ± 0.24; under setting [2], 3.34 ± 0.31.

Regarding HCMLVSNRVSWWGSTLAMLQRLKE [ZBED1], the protein stability index came to 3.29 ± 0.18 under setting [1] and 3.46 ± 0.37 under setting [2].

On to HEEVVEKVKKSGSRVMFLLVDKET [PDZK1], for which the protein stability index is 3.97 ± 0.17 under setting [1] and 4.25 ± 0.23 under setting [2].

HFMVLSKSGPGDGFFSSAFQARLS [POMT2] registered a protein stability index under setting [1] of 2.19 ± 0.11 and a protein stability index under setting [2] of 2.06 ± 0.18.

Consider HFPYDLHLRSQSLTMQDELNAVFH [NEUROD6], for which the protein stability index is, setting by setting: under setting [1], 2.81 ± 0.19; under setting [2], 2.92 ± 0.27.

HGAHINLQSLKFQGGHGPAATLLR [RIPK4]: the protein stability index came out at 2.65 ± 0.36 under setting [1] and 3 ± 0.047 under setting [2].

Consider HGQAGQRQDPRPHGPQLPTGIEGN [ZBED2], for which the protein stability index runs as follows: under setting [1], 4.91 ± 0.13; under setting [2], 5.11 ± 0.15.

Regarding HGQEGSILVTKVEEPSKYGVVVCE [GMPPB], the protein stability index stood at 3.9 ± 0.13 under setting [1] and 3.94 ± 0.25 under setting [2].

On to HILASAPTDRNLCHFQALGCRTTH [PYCR3], for which the protein stability index is, setting by setting: under setting [1], 2.19 ± 0.45; under setting [2], 2.23 ± 0.15.

HLVQHQHPNSRKSSAGGAKAGQPE [ZNF8]: the protein stability index was 4.8 ± 0.18 under setting [1] and 4.79 ± 0.16 under setting [2].

The sequence HMEGLIVRERILGADNIDVSHPII [FEM1B] showed a protein stability index under setting [1] of 3.25 ± 0.23 and a protein stability index under setting [2] of 2.95 ± 0.28.

On to HMTRHLEESEKAMQERVQRLEAAR [LRRC45], for which the protein stability index was 5.15 ± 0.06 under setting [1] and 5.06 ± 0.19 under setting [2].

Consider HPWKWSNGKEFNNWFNVTGSDKCV [CD69], for which the protein stability index under setting [1] turned out to be 2.58 ± 0.53 and the protein stability index under setting [2] is 2.46 ± 0.17.

Consider HQRIHTGEKPYECVQCGKSYSQSS [ZNF24], for which the protein stability index is, setting by setting: under setting [1], 3.79 ± 0.4; under setting [2], 3.92 ± 0.28.

Turning to HSGDLGQLDGLGFLYVTGHIKEIL [ACSBG2], the protein stability index under setting [1] was found to be 2.09 ± 0.17 and the protein stability index under setting [2] stood at 2.19 ± 0.32.

For HSKLLVSGFWGVARHFNYVGDLMG [DHCR7], the protein stability index is, setting by setting: under setting [1], 2.34 ± 0.53; under setting [2], 2.33 ± 0.44.

Take HTGERPFQCNQCGASFTQKGNLLR [IKZF1]: the protein stability index runs as follows: under setting [1], 2.21 ± 0.29; under setting [2], 2.79 ± 0.52.

On to HTKPSQAPAVEVAPAGASYNPSFE [NOP53], for which the protein stability index reads like this: under setting [1], 4.86 ± 0.36; under setting [2], 4.95 ± 0.19.

HVLLPVALEFQPQLVLVAAGFDAL [HDAC6] showed a protein stability index under setting [1] of 3.25 ± 0.43 and a protein stability index under setting [2] of 2.78 ± 0.43.

Regarding IAQAEEQARKRQEEREKEAAEQAE [SMARCE1], the protein stability index under setting [1] was 5.24 ± 0.12 and the protein stability index under setting [2] stood at 5.892 ± 0.034.

For IAQDTCTTTDHSSNPGPVPGSSSG [SPAG8], the protein stability index came out at 5.23 ± 0.44 under setting [1] and 5.26 ± 0.23 under setting [2].

Consider IASSDSEVEIVGVQEHARCVHPRG [C18orf25], for which the protein stability index runs as follows: under setting [1], 4.49 ± 0.37; under setting [2], 4.6 ± 0.1.

On to ICAIEYLHSKEIVYRDLKPENILL [PRKX], for which the protein stability index worked out at 2.61 ± 0.39 under setting [1] and 2.96 ± 0.94 under setting [2].

With IDASQLPHRVLETRGHAISILFGF [SMIM2], the protein stability index reads like this: under setting [1], 2.68 ± 0.54; under setting [2], 2.51 ± 0.54.

Regarding IDGDGDDMERFMEEMRELRRKIRE [BEX5], the protein stability index under setting [1] worked out at 3.26 ± 0.24 and the protein stability index under setting [2] turned out to be 3.71 ± 0.34.

Take IEEACYAQTIPTKDRLEGLLAFKE [AUH]: the protein stability index by setting is: under setting [1], 3.73 ± 0.46; under setting [2], 3.55 ± 0.69.

In turn, IERQWGNLLGEGQHKCDECGKSFT [ZSCAN9] returned a protein stability index under setting [1] of 3.79 ± 0.34 and a protein stability index under setting [2] of 3.55 ± 0.22.

IETYGPHVPELEMLGRLGYLNHVR [MNAT1] came in with a protein stability index under setting [1] of 2.4 ± 0.1 and a protein stability index under setting [2] of 2.62 ± 0.19.

Regarding IGLDNGTISEFILSEDYNKMTPVK [WDFY2], the protein stability index was found to be 2.98 ± 0.47 under setting [1] and 3.16 ± 0.54 under setting [2].

Consider IHCENCKTTLGWKYEQAFESSQKY [YPEL3], for which the protein stability index came to 2.36 ± 0.38 under setting [1] and 2.62 ± 0.62 under setting [2].

Turning to IHSPAHPEIEKADDHLQQPLQNQK [ZNF649], the protein stability index under setting [1] amounted to 5.39 ± 0.16 and the protein stability index under setting [2] came to 5.35 ± 0.37.

IIYMAILLTHRCLRDEHRCASKYG [DHCR7] gave a protein stability index under setting [1] of 2.83 ± 0.75 and a protein stability index under setting [2] of 2.75 ± 0.81.

Take ILWDTLLRLCAWGLASWPLARGIH [POMT2]: the protein stability index amounted to 2.823 ± 0.003 under setting [1] and 3.27 ± 1.2 under setting [2].

Regarding INLEEKEKQIRSFLIEGPLINTIR [PLEKHN1], the protein stability index is 2.5 ± 0.13 under setting [1] and 2.67 ± 0.31 under setting [2].

As for INVNDLSFVTGSHVGELIIWDALD [WDR41], the protein stability index reads like this: under setting [1], 2.22 ± 0.41; under setting [2], 2.12 ± 0.2.

Take IPIHGKGNFPTMEVKPKDIIHVVK [TENT5D]: the protein stability index under setting [1] turned out to be 2.86 ± 0.24 and the protein stability index under setting [2] was determined as 2.93 ± 0.2.

For the sequence IQEQPGQEQVAGGEAQPGLPQEDP [FEM1A], the protein stability index is 5.58 ± 0.16 under setting [1] and 5.57 ± 0.16 under setting [2].

For IRKKLKDSGDVSNVIEKVKCILKT [RHOBTB3], the protein stability index reads like this: under setting [1], 3.1 ± 0.51; under setting [2], 2.72 ± 0.94.

The sequence ISGVTKAISSPTVSRLTDTTKFTG [TPPP] came in with a protein stability index under setting [1] of 3.89 ± 0.27 and a protein stability index under setting [2] of 3.85 ± 0.17.

In the case of ISRLEQCGINANDVKKLEEAGFHT [RAD51], the protein stability index by setting is: under setting [1], 3.58 ± 0.15; under setting [2], 3.9 ± 0.11.

For ISSMADFWDFAQGPLLDSLYWTKW [PKD2L1], the protein stability index under setting [1] is 2.85 ± 1.3 and the protein stability index under setting [2] is 2.53 ± 1.6.

ITTPIIDTFKVPKEMFTVGCCVFA [SLC6A17]: the protein stability index by setting is: under setting [1], 2.67 ± 0.59; under setting [2], 2.86 ± 0.55.

With IVIFCLETLPELKDDKDFTGTVHR [KCNA1], the protein stability index was 2.42 ± 0.46 under setting [1] and 2.16 ± 0.27 under setting [2].
